Laboratory results published in a protein production outcome set (Wang et al. 2014).

Test: label from the status in PepcDB records
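Further: failed if final PepcDB status was selected cloned or expressed and not failed if soluble or beyond.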

For “MLRTFVLMFFTSLSFIVAYYITFSPLILAEFSHALIDFLTIAFSIIAIKFIGENEVAEGRFSYGLHRLEVVVAMINLIIIILLSLAVAYTSVTSLFKETTNDSFTLIVSSALASFLTYFASPKERNDLGKKGLYMHILSDFLGYIMGFIIGILIFISGIRELDPVGAIILVILNFALSIPLLKEAFLIFMEGSSVKIDHIMEELTKISPSVHHLHVWSICDHVKVATLHVKVSPNLTIAEADKIRGSICDFLKEKYGISHVTVQFETNVDD”, the protein production was “failed”.
For “MLRYSLLVLLGACSYGILAIFVKLAYAEGFSLGEVIGSQYLFGWIILLAITLLFSRHRVPLKQALLLFVAGTSASFTGIFYYASLKTVPASIAIILLFQFVWVGIIIEAVATKTLPSREKVISVIFLLVGTFLSSGLLEQSAGAFDTTGIILGLLSAVTFATYIFVSGKVAVEVPSLPRGVLLMTGALTLVMIVFPPTFIFNGAISQGLWKYGLGLGTFSIVIPSIAFTIGIPKIGSGLATILGAAELPVTTIMSVFVLKEAVLSSQWFGVSLILIGIAIPQIAYAMRGRYRKHHTHKKVAA”, the protein production was “failed”.
In the case of “MLSAYFSGSETGLLSLNKYRLRFLSEQGNKGAKKAEKLLEKPDTLLSFILIFNNLVNISASAIATVIGMRLYGDAGVAIATGLLTFVMLVFSEIFPKTVAAMHAEKVSFFSSHILTSLLKIFYPLVWLMNIFTKSLMQIVGLKLDMQKQVISSEELRSIVSEAGEATPNEQHPQMLLSILDMETVTVDDIMVPRNEIGGINIDDDWRAIMRQLNHAAHNRVVLYKGSLDEQVLGILRVREAFRLLLEKNEFTKETLIRAADEVYFIPESTPLKTQLANFRTNKERIGLVVDEYGDIKGLVTLEDILEEIVGDFTTSTAPSIDKEVIQQSDGSMIIDGSANLRDLNKMFNWELDTEDARTFNGLILEHLEEIPDEGTICEIDGLLITILEVGDNMIKQAKVVKL”, the protein production is reported as “not failed”.
With “MLSELAKQFSTQIQTFFYLIMLINGLLHFIFAGAVARDAGNLYRLGQKPVLVSAPTWAFATLIGGVITATIYWLLHHSTLTRPTMREIRYDKA” the protein production was “failed”.
With “MLSFIAVGLLARLAVARGEVKYGCTKHELRRLSRRGRLLLVVLWPLVAAFLLAIFPNVPSRNIFGDLILIIAAVLPAALLAFLVNAMLERTRFKVVPRRSPKAHSR” the protein production was “failed”.
With “MLSFIIKRILWAIPTLFGVSIIVFMMVHLVPGDPALVILGEKANQAAIDALREQFGLNKPLIEQYFFFINNVLHGNFGTSIMTGEPVMHEFWQRFPATVELALIALFMALVLGISVGVLAAIKRYSVFDYSSMTFALAGISMPVFWLGLMLIYIFSVQLGWLPVFGRLSDVYYLDGPTGLYLIDSLIARDYGAFMDTIKHLILPSIVLATVSTAVIARMTRASMAEVSKEDYVRTAKAKGCSSFRVIFVHTLRNALIPVTTIAGLMLAGLLGGSMITETVFSWPGIGKWIVNALNQRDFPIIQSMSLIIAMMYIGANLLVDILYAFIDPRIRLS” the protein production was “failed”.
With “MLSFRARLFLAFALLWLLFLGGGWYLAGRSVDQALKRRLEATLAQDALRAAEAYQKGQAGALLTTGGVYLHLYAQDGTPIALTRPDHRLPPERLRRAGPTPEVLWEEGFAAALVATPLGLLVLTAETSPIEAALEALREALLRAFLLLSPLGLALVYLTARLAARPLEAVAREITRRSPDRLDPVPHRLPQDEFGRMVEAVNALLQALKEAKERERAFLAEASHELRTPLTVLLGHLDRLGRNPQDLEALRTARATAERMRRLVEDLLALARGEVERNLNLHIVDLGEVAREAALEHGVAAEAESAEVLGDPDRLLQLLRNLVANAVRAAGKEGVRVRVRREADHALLEVEDSGPGIPEDLLPRLFQRFARGPGGGTGLGLAIAHAIAKAHGGEIAVESRPGRTVFRVRLPLLEEEA” the protein production was “failed”.
For “MLSGMSGGMLFIVFAWLIGHAVLRIVPTAYKPVLMVRSRGIALALSAIPLLLAYQLYEVVRVVQSQFSLSFQEAASTVIIQHPVGQSWFVVFTVTVFLGVLLLFPEKRVTANLFFVGVLLLIVSVSWVSHGTALLGWQGFVLNTSHLLASAVWIGTLLMVGWGARPLTDGLKFHRWFSLMVVCAVAVLSVSGLLLMNVIVPEYVPSWALTYGQFLLMKHLLFLPLLLFGLRHLLWLRAEKPLSVVQRSIRIESVVGCVVFFLSAFMTRQTPPHEVAETMQVEPPAWSFLLFHPEGLSVFQQLTLSLTGWGIACLVLAMIGLAASVLSLRHKSLFVFTTSSLTASLFLYVGLMLSVTPVSILVDETRYPTVEAAIQATYEDKTSIDIVLEDETEETTTVIYTVNAHDFVIEKLGIDSETDDFYRLPAAMLTVGGTSVYDEPMKIRTFQVTDGQWKETGSNYTYVTFGMIQEPKETVRLQLHYEDGSYVTELTNGVFYHVYQSDVEMSQPVIDLLAEDGTKVDQFLPAGVEQGVYCH”, the protein production was “failed”.
For “MLSKIVDINAARQNIDMKVKLLSLNKRTIKNDRGETVYYYGIIGDETGTVPFTAWTFPPAVRVGDVIEIRSCYSNIYNGKIRIYIDGRSEVILKPDVEMEVKRSSDLVKIRDVSLSTPYVSVIGKITGIHKKEYESDGTTKSVYQGYIEDDTARIRISSFGKQLQDSDVVRIDNARVAQFNGYLSLSVGDSSRIESVNVNIPEKPRHIFISEIRSPVGGITIVGFVVSVGQGSRIFTKCSVCRRIVEDGTCKDHPKAPVYPDIFGYFSISDGTGTITCYINSDSFLPYAGISQDQFRRDAYSMNPNSLIKKNLLGKCISVSGDLRSQDDRIVMNVQSMKAISAEDNREIESIIEEEFQ”, the protein production was “failed”.
In the case of “MLSMVEVKIIKSDGFFNEVLISSDKKIHFDTAYAEGDFNCFGEGSIVSETTDDLKFKIANLIPGKYHFKIAIDQYKILREAENRSGSYSFSIWLEKPYHNPDYAQFCAIIDKKLMDVRIAVPKHSISVSIFTKDTLKPVYSRRASFDTFDAVEYVFDGMSDYYFEVDNSRLPKEGYFSPKVHIEHEGGSKIIYHIFPDRFFRVGPHLPTLSRWGDKPTFSSFFGGNLRGITEKIGYIKALNVDTIYLNPVYKSKSNHRYDVDDYFSIDGLLGGEQDFIELVNEAHENGIKIVADMVFNHTSTDFPYFLDALKNGKNSKYWNWYIFHGEGAAVFDGRAKGKTKPLYETFMGVGRMPKLNHKNAEVRKFCIDVMKYYKNKFGVDGFRYDVAHSIYPEFFLEAVKEFGNEMLHIGEAWCLPSMFMLSGYWNSFTNYYLRNAIIKFVREEINITEFYNMIQNMIISYGPLIQQNVMNILDSHDTERILRAFKGNKKKVKLAYSILFMFDGFATIYYGDEVGLDGGRDPDDRRCFPWDNMDEDMLQFLKKLGEIRRMYHTGSAGIITVEETQECKYITRLSGESIIKVAIAKKPVTLEGEIILSSCGEKTIYEGDFALSIAKYA”, the protein production is reported as “failed”.
In the case of “MLSSVFQVLGGLALFLLAMEMMTNGLKNAAGHHLRHMLGHWTRTPLRALFAGFVITGIVQHSGAVTVATIGFVNAGLMTLAQSLGVVFGSNIGTTMTGWLVSLIGFGFKIEAMALPLLAAGVGFKLVSRNPRNQFLGEALAGFALFFLGLSILKTALESSALGFQNGHLINADYGLPAFMLIGLLATVLTQSSSAALAIVLTAAAGGLIPLDNAAAAVIGANLGSTSTAALSALKATANARRLATGHILFNLVTGVIALLVLPAMLWLVNTLTNLLDLEANPAVSLALFHTLFNVLGAAIMLPFTQPFARFLGRLFRSKEEDNAEPRYLDDTLVTTPELAIGAVDQEMKRLIGHSRGLLRVCLDRESLEESDVRPKADAVRNLNLAITDYIGRLRAEKMHPSVVDALTLSIRTCRYLAEATELTLHLVRLRALARRTDFETLESVFNRYFEVIRALVASETPVPEQLQEAETVYHQLKAATLQKMIRREFSSSLGAQVLDELSAVRRLTDQWSKALYWQDGVGLLNQSHDQASAS”, the protein production is reported as “failed”.
In the case of “MLSTEHFLLFASIVLFAGIMAGKVGYRFGIPTLLIFLFTGMLFGVDGFGFQFSNADVAQSVGIIALSIILFTGGMDTRIRKVRPVIAQGLTLSTLGVLLTALLSGFFIFWLSGSDFGPYPFALSTSLLLAATMASTDSASVFAILRSQKMQLKENLAPTLEMESGSNDPMAYMLTIALIDFITTGQSGIGSIVLTFILQFVVGGTLGFLMGRLAVFILNRMNIHNDTLYPITLLCMVFFTFSVTSLLQGNGYLAVYIAGIVVGNNRVIHKKSINTFLDGITWLVQIILFILLGLLVNPREMLDVAPFSLVVGAFMILIARPLAVYFCLIPFRKISFRGKTFLSWVGLRGAVPIIFATYPMIDNIPGADQLFNVVFFITILSLLVQGSTISQVARWLGLDIPSPPIGSLFGVEIPEETGTKLEERVVDASMLSHGDLLMNLSLRDEELVILVRRGEGYRVPKGRMHLQVGDVLLIVSEKNLSQTLTSGDPENHPGLLQRLKHRLLRR”, the protein production is reported as “failed”.
For “MLSTSRSRFIRNTNESGEEVTTFFDYDYGAPCHKFDVKQIGAQLLPPLYSLVFIFGFVGNMLVVLILINCKKLKCLTDIYLLNLAISDLLFLITLPLWAHSAANEWVFGNAMCKLFTGLYHIGYFGGIFFIILLTIDRYLAIVHAVFALKARTVTFGVVTSVITWLVAVFASVPGIIFTKCQKEDSVYVCGPYFPRGWNNFHTIMRNILGLVLPLLIMVICYSGILKTLLRCRNEKKRHRAVRVIFTIMIVYFLFWTPYNIVILLNTFQEFFGLSNCESTSQLDQATQVTETLGMTHCCINPIIYAFVGEKFRRYLSVFFRKHITKRFCKQCPVFYRETVDGVTSTNTPSTGEQEVSAGL”, the protein production was “failed”.
For “MLSVRIPGPARQAWAIVEQRPWLARRPFIIHGPPWRLASQQEDDVFKLMSRSAVKMVERYLPDPYVFVVLLTLVAAGAAMIIEGQTPMAVVRWWGNGFWGLLTFAMQMLLVLVTGYMLASTPLVKRMLARLASLATSAGGAIILVSVVSLAASWINWGFGLVVGALFAKQIARQVRVDYRLLVASAYSGFIIWHGGLAGSIPLTIATEGHFSADKIGIIPTGDTIFAVFNLVIVVAMFILVPLVNRLMLPDEKESVYVDPARLEEASVPASDDDKRPAARLENSRLLAWLIAAGGLAYMFDYYVVRGAGLNLNVINFSFLILAILLHGTPRRLLTSLDEAIKGGAGIVIQFPFYAGIMAIMMDSGLAATLSEWFVSIASAATLPFWTFISAGIVNIFIPSGGGQWAVQSPIVISAAQALGADMPRVAMAVAWGDAWTNMLQPFWALPVLAIAGLKAKDIMGYCIIQLLVTGVIISVGLSFF”, the protein production was “failed”.
In the case of “MLTFAAAVLFLIITPGPGVMTTAGFGAAYGFRASLSYVVGLFIGTNLVMLAVMTGLAAVLLSVPGLRLVLLVLSVGYLLYLAALIALAGARVAFIEARSAPGVMRGVLLQAINPKAYAVNTSLITGFNYAPDAFLFEMFTKALILNAIWIPIHLAWLWAGAALHRLNLPHSTQRAINILMALSMLGVVALALWSASRVKA”, the protein production is reported as “failed”.
With “MLTFETLCQWHRAWLGNVYSWAGQSRTVDMSKPNIRFASPVQIPKLAEKFEARYLPRFAELPEMTDEELVAFLAEVHVEFILIHPFREGNGRISRLLLDVMAAKAGAEPLDYSLWDEHKDFYFKAIQAGRDGDYQHVERLIRDVLEAQQLEHHHHHH” the protein production was “failed”.
With “MLTGRRYLLAFTPEQEEFAEKIGDACRVVWNTALEQRRQYRRRGAFIGYVEQARQMAEAKKDFPWLAEAPSHTLQQTLRDLERACKTHGTFKVRWRSKRKNAPTFRFPDPKQITVERISRRWGRVKLPKLGWTRFRWTRPLGGQLRNATVLKDGGRWYISFCVEDGLMESAPNGKPPVGVDRGVTVAVATSSGWMRDREFVTPGEAVRLKRLQQQLARQRKGSNRRAATRAKLTKLNARIRARRTDFLAWTANRLTCDHGLVVVEDLNIRNMTASAKGTLAEPGRNVAAKAGLNRAILAKGWGGLLTALEHKARYHGSRILRVPPAFTSQTCHACGHCAPDNRESQAEFRCRACGHQANADVNAAKNILAAGLAVTGRGDLAVGRSVKRQPPKVEAA” the protein production was “failed”.
In the case of “MLTKSVAVITSTIGRPELERAIQSVQQQTYPCQHYVFVDGVQFAEQAKQILDKYPQVIVTYLPMNTGANGWSNSSINAIAPFLAKEDMICYLDDDNWYEPNHVETCLTCLMQNQLDYVYSYRNLINSVNNHFICRDTFESVGPNKALKLDISSNMLNIAGSIQLHNENHIDTNTYFLTRKVALEASQYWYSGRSNDNNVSNWLLFSAYKGICTKTYSVNYLFDPTTFFNTFYQMICQNTPLNSSEQDKIAILEALIRAISDSQASD”, the protein production is reported as “failed”.
